In article PMC11383277 (bioRxiv, 2024):

Molecular target: human NaV1.8 alpha-subunit (human, UniProt Q9Y5Y9 1-1956, M1713V)
Assay: cryo-EM structure

B1: Protoxin-I (peptide)
peptide: ECRYWLGGCSAGQTCCKHLVCSRRHGWCVWDGTFS
binding result: binds
